Target: the molecule itself
Test: SEC; Superdex 200 size-exclusion column pre-calibrated with Bio-Rad gel-filtration standards, in purification buffer (50 mM Tris-HCl pH 8.0, 100 mM NaCl, 10% glycerol); monomer to dimer

B1: Wild-type ProRS fragment of human EPRS1 (aa 930-1512) (domain or fragment, UniProt P07814 930-1512, looked up)
chain: IAVQELLQLKAQYKSLIGVEYKPVSATGAEDKDKKKKEKENKSEKQNKPQKQNDGQRKDPSKNQGGGLSSSGAGEGQGPKKQTRLGLEAKKEENLADWYSQVITKSEMIEYHDISGCYILRPWAYAIWEAIKDFFDAEIKKLGVENCYFPMFVSQSALEKEKTHVADFAPEVAWVTRSGKTELAEPIAIRPTSETVMYPAYAKWVQSHRDLPIKLNQWCNVVRWEFKHPQPFLRTREFLWQEGHSAFATMEEAAEEVLQILDLYAQVYEELLAIPVVKGRKTEKEKFAGGDYTTTIEAFISASGRAIQGGTSHHLGQNFSKMFEIVFEDPKIPGEKQFAYQNSWGLTTRTIGVMTMVHGDNMGLVLPPRVACVQVVIIPCGITNALSEEDKEALIAKCNDYRRRLLSVNIRVRADLRDNYSPGWKFNHWELKGVPIRLEVGPRDMKSCQFVAVRRDTGEKLTVAENEAETKLQAILEDIQVTLFTRASEDLKTHMVVANTMEDFQKILDSGKIVQIPFCGEIDCEDWIKKTTARDQDLEPGAPSMGAKSLCIPFKPLCELQPGAKCVCGKNPAKYYTLFGRSY
notes: ProRS fragment of human EPRS1 (glutamyl-prolyl-tRNA synthetase), aa 930-1512, subcloned in pTRC-HisB; also called recombinant WT ProRS; ProRS domain; source: E. coli BL21 Codon-plus (DE3)RIPL, purified (HisTrap HP column)
  stoichiometry N: 2

B2: P1482T mutant ProRS fragment of human EPRS1 (aa 930-1512) (domain or fragment, UniProt P07814 930-1512, looked up)
chain: IAVQELLQLKAQYKSLIGVEYKPVSATGAEDKDKKKKEKENKSEKQNKPQKQNDGQRKDPSKNQGGGLSSSGAGEGQGPKKQTRLGLEAKKEENLADWYSQVITKSEMIEYHDISGCYILRPWAYAIWEAIKDFFDAEIKKLGVENCYFPMFVSQSALEKEKTHVADFAPEVAWVTRSGKTELAEPIAIRPTSETVMYPAYAKWVQSHRDLPIKLNQWCNVVRWEFKHPQPFLRTREFLWQEGHSAFATMEEAAEEVLQILDLYAQVYEELLAIPVVKGRKTEKEKFAGGDYTTTIEAFISASGRAIQGGTSHHLGQNFSKMFEIVFEDPKIPGEKQFAYQNSWGLTTRTIGVMTMVHGDNMGLVLPPRVACVQVVIIPCGITNALSEEDKEALIAKCNDYRRRLLSVNIRVRADLRDNYSPGWKFNHWELKGVPIRLEVGPRDMKSCQFVAVRRDTGEKLTVAENEAETKLQAILEDIQVTLFTRASEDLKTHMVVANTMEDFQKILDSGKIVQIPFCGEIDCEDWIKKTTARDQDLEPGAPSMGAKSLCITFKPLCELQPGAKCVCGKNPAKYYTLFGRSY
notes: The substitution is a natural patient variant; also called Pro1482Thr ProRS; P1482T ProRS; source: E. coli BL21 Codon-plus (DE3)RIPL, purified (HisTrap HP column)
  stoichiometry N: 2

— article PMC11106242, “Homozygous EPRS1 missense variant causing hypomyelinating leukodystrophy-15 alters variant-distal mRNA m^6A site accessibility” (Nature Communications, 2024)
